Tests used:
human serum albumin [1] = molecular target: T1, human serum albumin (human, UniProt P02768 25-609); test: binding ELISA on coated HSA, pH 7.4
T1 construct: mature; Bought protein; biotinylated in the Octet and HTRF assays; also called HSA; HuSA
Experimental: (§1) After saturation with 5% PBS Casein pH 7.5, plates were washed and a dilution of AFFIMER® trimers or controls were incubated on the plate for 90 minutes. Plates were then washed, and a biotinylated polyclonal antibody anti-cystatin A (R&D Systems) was added for 1 hour. Plates were washed and AFFIMER® ILFs were detected using streptavidin-HRP. After a last washing step, TMB was added for the development of the experiment, and the plates were read at 450 nm.

human serum albumin [2] = molecular target: T1, human serum albumin; test: Biacore, immobilised HSA, running buffer pH 6.0
Description: (§2) […] Fc2-1, Fc3-1 and Fc4-1 kinetic data was blank subtracted and fit to a 1:1 Langmuir binding model (BIAcore Evalution software; GE) to calculate KD values.

mouse serum albumin [3] = molecular target: T2, mouse serum albumin (mouse, UniProt P07724 25-608); test: Biacore, immobilised MSA, pH 6.0
T2 construct: also called MSA
T2 sequence (P07724 25-608 limits assumed): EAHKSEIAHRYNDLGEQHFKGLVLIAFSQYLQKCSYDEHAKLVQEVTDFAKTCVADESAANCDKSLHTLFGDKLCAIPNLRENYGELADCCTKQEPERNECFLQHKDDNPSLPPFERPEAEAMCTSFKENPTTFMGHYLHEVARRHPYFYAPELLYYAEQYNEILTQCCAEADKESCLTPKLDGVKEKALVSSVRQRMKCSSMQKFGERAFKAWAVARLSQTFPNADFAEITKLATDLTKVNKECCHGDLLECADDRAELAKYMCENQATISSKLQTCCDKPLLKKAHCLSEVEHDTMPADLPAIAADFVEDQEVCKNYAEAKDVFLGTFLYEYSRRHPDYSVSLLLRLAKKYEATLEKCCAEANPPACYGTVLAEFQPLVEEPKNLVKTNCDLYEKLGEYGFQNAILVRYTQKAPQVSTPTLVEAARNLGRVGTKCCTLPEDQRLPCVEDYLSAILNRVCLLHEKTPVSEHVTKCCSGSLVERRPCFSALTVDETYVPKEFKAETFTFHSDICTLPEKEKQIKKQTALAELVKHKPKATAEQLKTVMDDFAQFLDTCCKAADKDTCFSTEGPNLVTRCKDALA
Description: as §2

mouse serum albumin [4] = molecular target: T2, mouse serum albumin; test: binding ELISA on coated MSA, pH 7.4
Experimental: as §1

human serum albumin [5] = molecular target: T1, human serum albumin; test: Biacore, immobilised HSA, running buffer pH 7.4
Experimental: Affinities for mouse, human, and cynomolgus serum were also measured at pH 7.4 for four (4) AFFIMER® binders using surface plasmon resonance (SPR) (FIG. 5, Table 5). […] A concentration titration of AFFIMER® monomers was run as analyte at a flow rate of 30 μl/min or 60 μl/min. Fc2-1, Fc3-1 and Fc4-1 kinetic data was blank subtracted and fit to a 1:1 Langmuir binding model (BIAcore Evalution software; GE) to calculate KD values.

[6] = molecular target: T3, human PD-L1-Fc (R&D Systems) chimeric protein (human, UniProt Q9NZQ7 19-239); test: Biacore single cycle kinetics on human PD-L1 Fc
T3 construct: Bought reagent; also called rhPD-L1-Fc; huPD-L1; Fc part of the bought chimera not given, not described
T3 sequence (Q9NZQ7 19-239, change not shown): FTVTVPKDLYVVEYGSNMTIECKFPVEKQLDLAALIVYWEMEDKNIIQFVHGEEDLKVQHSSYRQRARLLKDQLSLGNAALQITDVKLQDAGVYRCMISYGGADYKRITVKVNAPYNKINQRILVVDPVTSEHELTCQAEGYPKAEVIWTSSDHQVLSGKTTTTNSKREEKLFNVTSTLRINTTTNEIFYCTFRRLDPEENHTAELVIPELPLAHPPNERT

EC50 (human serum albumin [1]): 0.0088 µM | Kd (human serum albumin [2]): 0.0311 µM | koff (human serum albumin [2]): 0.00308 s⁻¹ | kon (human serum albumin [2]): 98800 M⁻¹ s⁻¹ | Kd (mouse serum albumin [3]): 0.113 µM | koff (mouse serum albumin [3]): 0.0337 s⁻¹ | kon (mouse serum albumin [3]): 297000 M⁻¹ s⁻¹ | EC50 (mouse serum albumin [4]): 0.0608 µM | Kd (human serum albumin [5]): 0.325 µM | koff (human serum albumin [5]): 0.00758 s⁻¹ | kon (human serum albumin [5]): 23300 M⁻¹ s⁻¹ | Kd [6]: 0.000298 µM | koff [6]: 0.000159 s⁻¹ | kon [6]: 534000 M⁻¹ s⁻¹
B1: AVA04-251 XT61 (designed binder)
chain: MIPRGLSEAKPATPEIQEIVDKVKPQLEEKTNETYGKLEAVQYKTQVLAREGRQDWVLSTNYYIKVRAGDNKYMHLKVFNGPWVPFPHQQLADRVLTGYQVDKNKDDELTGFAEAAAKEAAAKEAAAKEAAAKEAAAKEAAAKMIPRGLSEAKPATPEIQEIVDKVKPQLEEKTNETYGKLEAVQYKTQVLADWWQAKWPHSTNYYIKVRAGDNKYMHLKVFNGPYKVHQSSGGADRVLTGYQVDKNKDDELTGFAEAAAKEAAAKEAAAKEAAAKEAAAKEAAAKMIPRGLSEAKPATPEIQEIVDKVKPQLEEKTNETYGKLEAVQYKTQVLAREGRQDWVLSTNYYIKVRAGDNKYMHLKVFNGPWVPFPHQQLADRVLTGYQVDKNKDDELTGFHHHHHH

From patent US20230272011A1 (AVACTA LIFE SCIENCES, published 2023)
